# Source: IntAct's records for PubMed 33758649
# B1: Protein PALS1 (Homo sapiens), Q8N3R9 (parent)
# chain: MTTSHMNGHVTEESDSEVKNVDLASPEEHQKHREMAVDCPGDLGTRMMPIRRSAQLERIRQQQEDMRRRREEEGKKQELDLNSSMRLKKLAQIPPKTGIDNPMFDTEEGIVLESPHYAVKILEIEDLFSSLKHIQHTLVDSQSQEDISLLLQLVQNKDFQNAFKIHNAITVHMNKASPPFPLISNAQDLAQEVQTVLKPVHHKEGQELTALLNTPHIQALLLAHDKVAEQEMQLEPITDERVYESIGQYGGETVKIVRIEKARDIPLGATVRNEMDSVIISRIVKGGAAEKSGLLHEGDEVLEINGIEIRGKDVNEVFDLLSDMHGTLTFVLIPSQQIKPPPAKETVIHVKAHFDYDPSDDPYVPCRELGLSFQKGDILHVISQEDPNWWQAYREGDEDNQPLAGLVPGKSFQQQREAMKQTIEEDKEPEKSGKLWCAKKNKKKRKKVLYNANKNDDYDNEEILTYEEMSLYHQPANRKRPIILIGPQNCGQNELRQRLMNKEKDRFASAVPHTTRSRRDQEVAGRDYHFVSRQAFEADIAAGKFIEHGEFEKNLYGTSIDSVRQVINSGKICLLSLRTQSLKTLRNSDLKPYIIFIAPPSQERLRALLAKEGKNPKPEELREIIEKTREMEQNNGHYFDTAIVNSDLDKAYQELLRLINKLDTEPQWVPSTWLR
# partner: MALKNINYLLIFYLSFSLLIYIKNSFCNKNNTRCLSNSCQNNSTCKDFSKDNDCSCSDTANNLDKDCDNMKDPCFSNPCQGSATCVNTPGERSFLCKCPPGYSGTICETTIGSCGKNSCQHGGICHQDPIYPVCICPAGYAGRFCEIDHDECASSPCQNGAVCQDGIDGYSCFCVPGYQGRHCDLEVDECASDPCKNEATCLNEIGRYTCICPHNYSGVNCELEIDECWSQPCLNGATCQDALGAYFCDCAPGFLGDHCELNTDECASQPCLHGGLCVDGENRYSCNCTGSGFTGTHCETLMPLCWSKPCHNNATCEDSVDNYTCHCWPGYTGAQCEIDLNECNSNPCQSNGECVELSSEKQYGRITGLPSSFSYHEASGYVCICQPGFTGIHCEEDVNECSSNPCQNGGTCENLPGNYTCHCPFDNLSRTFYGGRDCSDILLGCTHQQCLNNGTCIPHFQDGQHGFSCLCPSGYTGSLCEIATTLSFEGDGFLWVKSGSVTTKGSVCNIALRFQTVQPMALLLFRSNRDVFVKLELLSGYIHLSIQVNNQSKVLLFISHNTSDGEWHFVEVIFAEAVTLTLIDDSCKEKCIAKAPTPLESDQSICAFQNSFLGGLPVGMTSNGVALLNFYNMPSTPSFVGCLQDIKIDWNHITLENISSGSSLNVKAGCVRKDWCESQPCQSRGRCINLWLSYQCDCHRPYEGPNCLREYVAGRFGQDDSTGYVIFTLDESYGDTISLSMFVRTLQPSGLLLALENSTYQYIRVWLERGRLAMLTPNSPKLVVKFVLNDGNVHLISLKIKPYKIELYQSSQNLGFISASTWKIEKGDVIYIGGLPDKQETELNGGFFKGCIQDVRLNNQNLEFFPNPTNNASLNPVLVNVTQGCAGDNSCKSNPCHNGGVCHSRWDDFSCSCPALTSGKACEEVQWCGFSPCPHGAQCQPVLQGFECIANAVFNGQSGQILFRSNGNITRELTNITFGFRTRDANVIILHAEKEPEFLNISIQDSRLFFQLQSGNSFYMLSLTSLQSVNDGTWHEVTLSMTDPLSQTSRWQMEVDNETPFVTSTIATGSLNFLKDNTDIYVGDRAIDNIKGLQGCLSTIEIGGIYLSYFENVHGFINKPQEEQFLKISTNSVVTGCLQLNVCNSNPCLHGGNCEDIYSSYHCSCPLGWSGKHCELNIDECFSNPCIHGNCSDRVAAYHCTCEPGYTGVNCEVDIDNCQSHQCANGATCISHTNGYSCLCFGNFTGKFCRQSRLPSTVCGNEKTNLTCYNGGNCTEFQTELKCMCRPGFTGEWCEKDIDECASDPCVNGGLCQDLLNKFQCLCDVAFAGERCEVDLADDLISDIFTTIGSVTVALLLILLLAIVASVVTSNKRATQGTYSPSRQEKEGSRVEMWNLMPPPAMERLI
# Variants of: B1
# Settings: with crum1_human CRB1, P82279
row,Variant,effect of a mutation on the interaction
1,F318W,decreasing interaction strength
